From PMC4253602 (Molecular oncology, 2014)
Like-named read-outs stand apart in the source and are kept apart here.

Key:
[1] = target: C320-YY (biotinylated peptide); assay: SPR
[2] = target: ARN20-LY (biotinylated peptide) (human); assay: SPR
[3] = target: ARN20-HY (biotinylated peptide) (human); assay: SPR
[4] = target: ARN20-FY (biotinylated peptide) (human); assay: SPR
[5] = target: C320-WY (biotinylated peptide); assay: SPR
C320-LY (Biotin-C320) = assay: SPR
[6] = target: C320-HY (biotinylated peptide); assay: SPR
[7] = target: ARN20-WY (biotinylated peptide) (human); assay: SPR
[8] = target: full-length T877A-AR (VP16 fusion) (human); assay: two-hybrid
[9] = target: T1, full-length wt-AR (VP16 fusion) (human, UniProt P10275 1-920); assay: two-hybrid
T1 sequence (looked up): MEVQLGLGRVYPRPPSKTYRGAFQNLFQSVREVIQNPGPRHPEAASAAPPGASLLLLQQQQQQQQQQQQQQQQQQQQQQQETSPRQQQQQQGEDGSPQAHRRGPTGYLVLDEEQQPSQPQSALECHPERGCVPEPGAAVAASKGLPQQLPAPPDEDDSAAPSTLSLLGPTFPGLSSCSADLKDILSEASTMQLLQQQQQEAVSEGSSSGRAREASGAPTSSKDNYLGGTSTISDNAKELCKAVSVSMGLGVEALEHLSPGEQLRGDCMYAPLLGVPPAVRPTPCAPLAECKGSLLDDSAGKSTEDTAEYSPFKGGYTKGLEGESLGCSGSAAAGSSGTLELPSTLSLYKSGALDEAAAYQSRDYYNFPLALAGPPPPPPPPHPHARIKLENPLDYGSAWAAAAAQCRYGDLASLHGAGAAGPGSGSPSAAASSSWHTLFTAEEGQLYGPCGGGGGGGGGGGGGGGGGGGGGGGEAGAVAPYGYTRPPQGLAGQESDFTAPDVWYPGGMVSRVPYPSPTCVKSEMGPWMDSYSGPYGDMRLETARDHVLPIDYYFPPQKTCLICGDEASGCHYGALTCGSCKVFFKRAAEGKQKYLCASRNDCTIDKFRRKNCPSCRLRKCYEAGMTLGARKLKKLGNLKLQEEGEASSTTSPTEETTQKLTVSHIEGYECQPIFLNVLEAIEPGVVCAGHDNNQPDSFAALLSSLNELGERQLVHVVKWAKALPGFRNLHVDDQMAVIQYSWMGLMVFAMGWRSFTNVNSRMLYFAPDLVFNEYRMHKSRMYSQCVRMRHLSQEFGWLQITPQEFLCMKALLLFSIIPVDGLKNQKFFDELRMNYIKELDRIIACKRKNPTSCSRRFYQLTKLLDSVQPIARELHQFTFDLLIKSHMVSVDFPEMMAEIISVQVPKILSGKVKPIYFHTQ

[10] = target: full-length T877A-AR (VP16 fusion) (human); assay: two-hybrid; remark: listed apart in the source

Molecule | two-hybrid reporter activity (Gal-4 = 1) [8] | two-hybrid reporter activity (Gal-4 = 1) [9] | two-hybrid reporter activity (Gal-4 = 1) [10] | further results
wild-type AR-DBD-LBD (domain or fragment) | – | – | – | Kd [1]: 3800 nM; Kd [2]: 100 nM; Kd [3]: 140000 nM; Kd [4]: 38 nM; Kd [5]: 140 nM; Kd (C320-LY (Biotin-C320)): 30 nM; Kd [6]: 38000 nM; Kd [7]: 500 nM
EASNSSFARLFH [B426 (Gal-4 fusion)] | 9550 | 13500 | 1510 | –
SPTRLFDHLYMT [B423 (Gal-4 fusion)] | 401 | 1220 | 168 | –
SHSSFYQYYLDN [A310 (Gal-4 fusion)] | 3590 | 4770 | 4460 | –
TEPPAAFRQLFF [C317 (Gal-4 fusion)] | 5230 | 6600 | 4380 | –
SDSAFSRLYTRS [C320 (Gal-4 fusion)] | 12700 | 13400 | 4650 | –
SSFADLWRNEAT [C314 (Gal-4 fusion)] | 859 | 1140 | 121 | –
HPTHSSRLWELLMEATPTM [D30 (Gal-4 fusion)] | 18100 | 19900 | 8800 | –
HTSMFESFFRKE [HF-15 (Gal-4 fusion)] | 13900 | 11500 | 14500 | –
ANSSFRDWYTSS [B46 (Gal-4 fusion)] | 376 | 792 | 1260 | –
SKFSQLYSYEPP [B49 (Gal-4 fusion)] | 1030 | 1790 | 318 | –
SSGGFERFYIAQ [A41 (Gal-4 fusion)] | 3060 | 4310 | 3510 | –
NTPLFQTFYNQR [B45 (Gal-4 fusion)] | 12600 | 18000 | 17200 | –
NPRTPTTFERYY [B414 (Gal-4 fusion)] | – | 18 | – | –
KTRYIFDLFYKRKAY [BUD31 peptide (Gal-4 fusion)] | 12000 | 8940 | 4870 | –
HASPFEMHYLLG [HF-26 (Gal-4 fusion)] | 8400 | 8900 | 8900 | –
STFESLYNNMTA [C33 (Gal-4 fusion)] | 1020 | 1330 | 399 | –
HPARTSFETHYM [B411 (Gal-4 fusion)] | – | 13 | 16 | –
SFYDFYNGASTP [C41 (Gal-4 fusion)] | – | 23 | – | –
DSQYSSFSRYYK [A47 (Gal-4 fusion)] | – | 21 | – | –
DPPTSKFSTFYQ [A48 (Gal-4 fusion)] | – | 32 | – | –
SPTPHFTRLFHY [B310 (Gal-4 fusion)] | 12100 | 17800 | 6720 | –
NTTDTLFSQHYR [B32 (Gal-4 fusion)] | – | 41 | – | –
RGAFQNLFQSV [ARN20 (Gal-4 fusion)] | 1580 | 1310 | 1420 | –
HNTKFSTFYNMD [B37 (Gal-4 fusion)] | 6240 | 9160 | 8710 | –
VLPGSTFERFYR [A49 (Gal-4 fusion)] | 26 | 25 | – | –
NTNAFSRLFYPS [#3-18 (Gal-4 fusion)] | 11000 | 12500 | – | –
HKASPFNYYYLN [B311 (Gal-4 fusion)] | – | 46 | – | –
PAPKFKEFFYAE [A43 (Gal-4 fusion)] | 7350 | 8840 | 8300 | –
SPFEEHYLSTQS [B34 (Gal-4 fusion)] | 37 | 42 | – | –
